Reference: paper PMC9482650, “Quantitative fragmentomics allow affinity mapping of interactomes” (Nature Communications, 2022)

T1: APBA3_1, O96018
T1 sequence (O96018 389-490, limits assumed, looked up): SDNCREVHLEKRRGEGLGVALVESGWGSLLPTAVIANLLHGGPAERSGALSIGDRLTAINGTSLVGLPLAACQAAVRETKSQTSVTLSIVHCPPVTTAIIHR

T2: DFNB31_1, Q9P202
T2 sequence (Q9P202 135-233, limits assumed, looked up): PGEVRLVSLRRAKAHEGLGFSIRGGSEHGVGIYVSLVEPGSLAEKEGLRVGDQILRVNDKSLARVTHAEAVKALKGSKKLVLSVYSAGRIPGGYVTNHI

T3: GRIP1_3, Q9Y3R0
T3 sequence (Q9Y3R0 247-346, limits assumed, looked up): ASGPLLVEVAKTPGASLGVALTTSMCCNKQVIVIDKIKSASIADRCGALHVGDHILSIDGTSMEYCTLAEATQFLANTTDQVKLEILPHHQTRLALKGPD

T4: GRIP1_5, Q9Y3R0
T4 sequence (Q9Y3R0 568-668, limits assumed, looked up): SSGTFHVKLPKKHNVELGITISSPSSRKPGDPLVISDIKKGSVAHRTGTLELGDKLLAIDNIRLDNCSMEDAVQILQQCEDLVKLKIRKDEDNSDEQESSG

T5: PDZRN3_1, Q9UPQ7
T5 sequence (Q9UPQ7 244-349, limits assumed, looked up): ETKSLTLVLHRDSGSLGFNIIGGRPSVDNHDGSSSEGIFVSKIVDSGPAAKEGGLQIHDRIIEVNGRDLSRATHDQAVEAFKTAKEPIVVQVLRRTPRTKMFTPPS

T6: RADIL, Q96JH8
T6 sequence (Q96JH8 971-1071, limits assumed, looked up): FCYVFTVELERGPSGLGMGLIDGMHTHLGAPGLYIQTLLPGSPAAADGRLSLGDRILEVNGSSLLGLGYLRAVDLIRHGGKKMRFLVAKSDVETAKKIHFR

T7: SNTB1, Q13884
T7 sequence (Q13884 107-205, limits assumed, looked up): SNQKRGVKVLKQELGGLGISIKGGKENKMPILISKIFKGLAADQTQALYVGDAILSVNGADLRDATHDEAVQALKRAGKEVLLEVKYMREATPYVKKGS

T8: TX1BP3, O14907
T8 sequence (O14907 10-122, limits assumed, looked up): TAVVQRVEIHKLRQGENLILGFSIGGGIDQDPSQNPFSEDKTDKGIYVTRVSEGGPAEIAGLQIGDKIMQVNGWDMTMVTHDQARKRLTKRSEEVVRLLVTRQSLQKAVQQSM

B1: SLC1A7, O00341 (peptide)
chain: IQISELETNV
B2: SLC22A11, Q9NSA0 (peptide)
chain: EAVTVESTSL

The binders below were run against T1, APBA3_1, O96018 (assay: holdup assay). Details: plain residues with an end cap or a label only (N-terminal biotin on a linker: ado-ado).
Set-up: key: below the threshold = too weak to quantify, mostly under pKd 3.1 to 4

pKd | Binder
below the threshold | B1
below the threshold | B2

Each binder was assayed against T2, DFNB31_1, Q9P202 (assay: holdup assay). Details: plain residues with an end cap or a label only (N-terminal biotin on a linker: ado-ado).
Set-up: key: below the threshold = too weak to quantify, mostly under pKd 3.1 to 4

pKd | Binder
4.19 | B1
3.98 | B2

These binders were tested against DLG4_3, P78352 (assay: holdup assay). Details: plain residues with an end cap or a label only (N-terminal biotin on a linker: ado-ado).
Sequence of DLG4_3, P78352 (P78352 306-403): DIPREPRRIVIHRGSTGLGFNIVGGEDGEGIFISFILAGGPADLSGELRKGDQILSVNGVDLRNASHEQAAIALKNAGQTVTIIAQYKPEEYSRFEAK
Set-up: key: below the threshold = too weak to quantify, mostly under pKd 3.1 to 4

pKd | Binder
below the threshold | B1
below the threshold | B2

What follows are binders tested against DLG5_1, Q8TDM6 (assay: holdup assay). Details: plain residues with an end cap or a label only (N-terminal biotin on a linker: ado-ado).
Sequence of DLG5_1, Q8TDM6 (Q8TDM6 617-713): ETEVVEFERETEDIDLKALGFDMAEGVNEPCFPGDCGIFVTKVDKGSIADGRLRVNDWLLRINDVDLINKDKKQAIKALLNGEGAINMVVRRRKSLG
Set-up: key: below the threshold = too weak to quantify, mostly under pKd 3.1 to 4

pKd | Binder
below the threshold | B1
below the threshold | B2

These binders were tested against FRMPD4, Q14CM0 (assay: holdup assay). Details: plain residues with an end cap or a label only (N-terminal biotin on a linker: ado-ado).
Sequence of FRMPD4, Q14CM0 (Q14CM0 67-160): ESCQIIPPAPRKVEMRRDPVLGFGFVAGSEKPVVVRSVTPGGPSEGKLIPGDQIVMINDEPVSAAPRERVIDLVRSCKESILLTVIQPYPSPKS
Set-up: key: below the threshold = too weak to quantify, mostly under pKd 3.1 to 4

pKd | Binder
3.56 | B1
4.23 | B2

The binders below were run against GIPC2, Q8TF65 (assay: holdup assay). Details: plain residues with an end cap or a label only (N-terminal biotin on a linker: ado-ado).
Sequence of GIPC2, Q8TF65 (Q8TF65 112-203): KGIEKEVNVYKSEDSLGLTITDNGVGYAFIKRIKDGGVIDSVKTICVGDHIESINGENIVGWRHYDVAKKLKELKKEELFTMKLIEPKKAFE
Set-up: key: below the threshold = too weak to quantify, mostly under pKd 3.1 to 4

pKd | Binder
3.86 | B1
below the threshold | B2

These binders were tested against GORASP1, Q9BQQ3 (assay: holdup assay). Details: plain residues with an end cap or a label only (N-terminal biotin on a linker: ado-ado).
Sequence of GORASP1, Q9BQQ3 (Q9BQQ3 1-208): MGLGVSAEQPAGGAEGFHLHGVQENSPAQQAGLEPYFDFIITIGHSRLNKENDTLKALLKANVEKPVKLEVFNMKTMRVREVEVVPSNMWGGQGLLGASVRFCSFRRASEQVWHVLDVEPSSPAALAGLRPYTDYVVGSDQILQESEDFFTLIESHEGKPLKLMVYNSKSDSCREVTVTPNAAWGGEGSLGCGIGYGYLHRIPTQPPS
Set-up: key: below the threshold = too weak to quantify, mostly under pKd 3.1 to 4

pKd | Binder
below the threshold | B1
below the threshold | B2

These binders were tested against T3, GRIP1_3, Q9Y3R0 (assay: holdup assay). Details: plain residues with an end cap or a label only (N-terminal biotin on a linker: ado-ado).
Set-up: key: below the threshold = too weak to quantify, mostly under pKd 3.1 to 4

pKd | Binder
below the threshold | B1
below the threshold | B2

These binders were tested against T4, GRIP1_5, Q9Y3R0 (assay: holdup assay). Details: plain residues with an end cap or a label only (N-terminal biotin on a linker: ado-ado).
Set-up: key: below the threshold = too weak to quantify, mostly under pKd 3.1 to 4

pKd | Binder
below the threshold | B1
below the threshold | B2

These binders were tested against GRIP2_4, Q9C0E4 (assay: holdup assay). Details: plain residues with an end cap or a label only (N-terminal biotin on a linker: ado-ado).
Sequence of GRIP2_4, Q9C0E4 (Q9C0E4 446-548): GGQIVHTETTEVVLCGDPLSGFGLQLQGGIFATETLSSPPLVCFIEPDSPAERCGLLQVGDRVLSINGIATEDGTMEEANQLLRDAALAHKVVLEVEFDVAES
Set-up: key: below the threshold = too weak to quantify, mostly under pKd 3.1 to 4

pKd | Binder
below the threshold | B1
below the threshold | B2

What follows are binders tested against GRIP2_7, Q9C0E4 (assay: holdup assay). Details: plain residues with an end cap or a label only (N-terminal biotin on a linker: ado-ado).
Sequence of GRIP2_7, Q9C0E4 (Q9C0E4 934-1023): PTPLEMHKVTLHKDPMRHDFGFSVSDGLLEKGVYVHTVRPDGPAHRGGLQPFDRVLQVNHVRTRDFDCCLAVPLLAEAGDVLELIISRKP
Set-up: key: below the threshold = too weak to quantify, mostly under pKd 3.1 to 4

pKd | Binder
below the threshold | B1
below the threshold | B2

These binders were tested against IL16_4, Q14005 (assay: holdup assay). Details: plain residues with an end cap or a label only (N-terminal biotin on a linker: ado-ado).
Sequence of IL16_4, Q14005 (Q14005 1229-1329): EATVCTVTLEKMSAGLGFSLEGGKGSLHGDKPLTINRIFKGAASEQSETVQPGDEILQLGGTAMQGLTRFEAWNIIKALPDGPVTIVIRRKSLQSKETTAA
Set-up: key: below the threshold = too weak to quantify, mostly under pKd 3.1 to 4

pKd | Binder
below the threshold | B1
below the threshold | B2

These binders were tested against Inadl_1, Q8NI35 (assay: holdup assay). Details: plain residues with an end cap or a label only (N-terminal biotin on a linker: ado-ado).
Sequence of Inadl_1, Q8NI35 (Q8NI35 113-229): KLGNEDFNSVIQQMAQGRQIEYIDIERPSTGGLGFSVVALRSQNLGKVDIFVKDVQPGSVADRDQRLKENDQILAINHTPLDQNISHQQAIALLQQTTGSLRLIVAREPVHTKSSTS
Set-up: key: below the threshold = too weak to quantify, mostly under pKd 3.1 to 4

pKd | Binder
below the threshold | B1
below the threshold | B2

Each binder was assayed against Inadl_6, Q8NI35 (assay: holdup assay). Details: plain residues with an end cap or a label only (N-terminal biotin on a linker: ado-ado).
Sequence of Inadl_6, Q8NI35 (Q8NI35 1058-1167): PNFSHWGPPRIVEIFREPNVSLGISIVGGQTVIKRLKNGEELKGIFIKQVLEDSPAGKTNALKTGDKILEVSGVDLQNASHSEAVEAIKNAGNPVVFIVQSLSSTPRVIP
Set-up: key: below the threshold = too weak to quantify, mostly under pKd 3.1 to 4

pKd | Binder
4.04 | B1
3.94 | B2

The binders below were run against LNX1_1, Q8TBB1 (assay: holdup assay). Details: plain residues with an end cap or a label only (N-terminal biotin on a linker: ado-ado).
Sequence of LNX1_1, Q8TBB1 (Q8TBB1 261-371): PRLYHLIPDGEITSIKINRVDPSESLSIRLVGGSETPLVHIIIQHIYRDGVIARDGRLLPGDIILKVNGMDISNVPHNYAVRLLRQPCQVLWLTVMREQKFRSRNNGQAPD
Set-up: key: below the threshold = too weak to quantify, mostly under pKd 3.1 to 4

pKd | Binder
3.91 | B1
3.5 | B2

The binders below were run against LNX1_2, Q8TBB1 (assay: holdup assay). Details: plain residues with an end cap or a label only (N-terminal biotin on a linker: ado-ado).
Sequence of LNX1_2, Q8TBB1 (Q8TBB1 371-470): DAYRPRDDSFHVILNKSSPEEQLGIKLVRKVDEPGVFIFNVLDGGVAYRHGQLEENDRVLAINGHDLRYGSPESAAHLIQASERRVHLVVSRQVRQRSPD
Set-up: key: below the threshold = too weak to quantify, mostly under pKd 3.1 to 4

pKd | Binder
below the threshold | B1
below the threshold | B2

What follows are binders tested against LNX1_3, Q8TBB1 (assay: holdup assay). Details: plain residues with an end cap or a label only (N-terminal biotin on a linker: ado-ado).
Sequence of LNX1_3, Q8TBB1 (Q8TBB1 500-596): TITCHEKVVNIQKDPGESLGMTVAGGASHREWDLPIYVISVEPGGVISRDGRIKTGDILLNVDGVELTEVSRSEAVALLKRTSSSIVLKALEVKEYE
Set-up: key: below the threshold = too weak to quantify, mostly under pKd 3.1 to 4

pKd | Binder
below the threshold | B1
below the threshold | B2

What follows are binders tested against MAGI1_1, Q96QZ7 (assay: holdup assay). Details: plain residues with an end cap or a label only (N-terminal biotin on a linker: ado-ado).
Sequence of MAGI1_1, Q96QZ7 (Q96QZ7 1-106): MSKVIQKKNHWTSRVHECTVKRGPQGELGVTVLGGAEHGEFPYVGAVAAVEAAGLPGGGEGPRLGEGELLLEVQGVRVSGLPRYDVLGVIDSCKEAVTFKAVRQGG
Set-up: key: below the threshold = too weak to quantify, mostly under pKd 3.1 to 4

pKd | Binder
below the threshold | B1
below the threshold | B2

Each binder was assayed against MAGI1_2, Q96QZ7 (assay: holdup assay). Details: plain residues with an end cap or a label only (N-terminal biotin on a linker: ado-ado).
Sequence of MAGI1_2, Q96QZ7 (Q96QZ7 456-580): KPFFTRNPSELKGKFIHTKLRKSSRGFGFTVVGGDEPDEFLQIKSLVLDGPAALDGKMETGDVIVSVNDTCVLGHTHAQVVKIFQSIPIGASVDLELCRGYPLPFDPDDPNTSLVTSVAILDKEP
Set-up: key: below the threshold = too weak to quantify, mostly under pKd 3.1 to 4

pKd | Binder
below the threshold | B1
below the threshold | B2

What follows are binders tested against MAGI2_5, Q86UL8 (assay: holdup assay). Details: plain residues with an end cap or a label only (N-terminal biotin on a linker: ado-ado).
Sequence of MAGI2_5, Q86UL8 (Q86UL8 915-1017): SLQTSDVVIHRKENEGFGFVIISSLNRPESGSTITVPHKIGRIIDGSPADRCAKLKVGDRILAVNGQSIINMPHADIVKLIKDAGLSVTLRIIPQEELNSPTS
Set-up: key: below the threshold = too weak to quantify, mostly under pKd 3.1 to 4

pKd | Binder
4.11 | B1
4.45 | B2

These binders were tested against MAGI2_6, Q86UL8 (assay: holdup assay). Details: plain residues with an end cap or a label only (N-terminal biotin on a linker: ado-ado).
Sequence of MAGI2_6, Q86UL8 (Q86UL8 1141-1229): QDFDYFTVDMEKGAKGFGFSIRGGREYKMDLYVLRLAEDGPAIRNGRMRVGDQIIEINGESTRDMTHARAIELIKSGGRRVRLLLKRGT
Set-up: key: below the threshold = too weak to quantify, mostly under pKd 3.1 to 4

pKd | Binder
4.31 | B1
4.2 | B2

These binders were tested against T5, PDZRN3_1, Q9UPQ7 (assay: holdup assay). Details: plain residues with an end cap or a label only (N-terminal biotin on a linker: ado-ado).
Set-up: key: below the threshold = too weak to quantify, mostly under pKd 3.1 to 4

pKd | Binder
3.84 | B1
4.24 | B2

What follows are binders tested against PDZRN4_1, Q6ZMN7 (assay: holdup assay). Details: plain residues with an end cap or a label only (N-terminal biotin on a linker: ado-ado).
Sequence of PDZRN4_1, Q6ZMN7 (Q6ZMN7 213-318): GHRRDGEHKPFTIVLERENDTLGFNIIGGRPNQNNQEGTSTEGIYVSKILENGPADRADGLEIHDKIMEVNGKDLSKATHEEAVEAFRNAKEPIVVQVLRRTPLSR
Set-up: key: below the threshold = too weak to quantify, mostly under pKd 3.1 to 4

pKd | Binder
4.03 | B1
4.43 | B2

The binders below were run against PICK1, Q9NRD5 (assay: holdup assay). Details: plain residues with an end cap or a label only (N-terminal biotin on a linker: ado-ado).
Sequence of PICK1, Q9NRD5 (Q9NRD5 17-115): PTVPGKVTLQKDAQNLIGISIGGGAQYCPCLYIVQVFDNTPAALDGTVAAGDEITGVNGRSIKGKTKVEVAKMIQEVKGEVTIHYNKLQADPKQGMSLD
Set-up: key: below the threshold = too weak to quantify, mostly under pKd 3.1 to 4

pKd | Binder
4.18 | B1
below the threshold | B2

What follows are binders tested against T6, RADIL, Q96JH8 (assay: holdup assay). Details: plain residues with an end cap or a label only (N-terminal biotin on a linker: ado-ado).
Set-up: key: below the threshold = too weak to quantify, mostly under pKd 3.1 to 4

pKd | Binder
below the threshold | B1
below the threshold | B2

These binders were tested against SCRIB_3, Q14160 (assay: holdup assay). Details: plain residues with an end cap or a label only (N-terminal biotin on a linker: ado-ado).
Sequence of SCRIB_3, Q14160 (Q14160 999-1103): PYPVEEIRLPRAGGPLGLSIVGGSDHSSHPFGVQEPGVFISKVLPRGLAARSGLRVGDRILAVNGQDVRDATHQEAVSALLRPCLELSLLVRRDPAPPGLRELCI
Set-up: key: below the threshold = too weak to quantify, mostly under pKd 3.1 to 4

pKd | Binder
4.74 | B1
4.75 | B2

Each binder was assayed against T7, SNTB1, Q13884 (assay: holdup assay). Details: plain residues with an end cap or a label only (N-terminal biotin on a linker: ado-ado).
Set-up: key: below the threshold = too weak to quantify, mostly under pKd 3.1 to 4

pKd | Binder
5.37 | B1
3.94 | B2

The binders below were run against SNX27, Q96L92 (assay: holdup assay). Details: plain residues with an end cap or a label only (N-terminal biotin on a linker: ado-ado).
Set-up: key: below the threshold = too weak to quantify, mostly under pKd 3.1 to 4

pKd | Binder
5.65 | B1
5.41 | B2

What follows are binders tested against T8, TX1BP3, O14907 (assay: holdup assay). Details: plain residues with an end cap or a label only (N-terminal biotin on a linker: ado-ado).
Set-up: key: below the threshold = too weak to quantify, mostly under pKd 3.1 to 4

pKd | Binder
4.03 | B1
4.25 | B2
